Results: the supplement of paper PMC10567573

B1: NECAB1 (parent)
chain: NLDTEELCEYFSQHLGEYENVLAA

Variants of: B1
Experiment: protein stability index of a GFP-peptide fusion (GPS, HEK-293T) (PSI 1-6); higher = more stable
Conditions: c terminus: a fixed tail appended
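Also: lentivirally expressed fusions sorted by FACS into six bins by GFP to DsRed ratio, PSI derived from sequencing read proportions per bin multiplied by bin number.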

Protein stability index of substitutions, site by site:
E17: N 2.14, F 2.33, Y 2.65, M 2.17, T 2.51, G 2.81, V 2.33, R 2.76, D 2.88, Q 1.66, L 2.62, A 2.12, W 2.11, C 2.31, I 2.84, K 1.34, H 1.54, S 2.99, P 2.64
S12: T 2.91, M 1.98, P 4.53, L 1.92, V 2.28, Q 2.55, Y 2.91, W 3.15, N 3.07, R 2, I 2.68, K 2.09
H14: G 3.81, M 2.98, S 3.81, V 3.01, F 2.02, A 3.31, D 3.86, P 4.44, C 3.63, E 4.47, T 4.11, W 1.84, I 1.87, K 2.73, Y 2.19, N 2.55, L 2.09, R 2.12, Q 3.35
Y18: G 4.46, L 2.3, V 3.14, I 2.07, K 4.71, M 3.6, C 4.03, E 5.13, H 4.47, T 4.37, Q 4.61, A 4.2, N 4.27, R 4.21, S 4.56, P 4.28, D 5.13, W 1.8, F 2.31
Q13: V 2.7, S 2.87, L 2.08, P 3.71, A 2.5, R 3.25, M 2.06, I 2.19, W 2.1, Y 2.2, D 4.13, K 2.36, F 2.27, G 3.3, N 2.89, H 2.32, T 3.27, C 2.06, E 2.83
E19: W 1.82, I 4.56, R 1.84, V 1.53, D 3.98, Y 1.93, T 2.07, F 1.97, Q 2.4, A 1.66, N 2.87, H 1.97, P 2.91, L 1.82, C 1.83, M 2.18, G 2.34, S 2.11, K 2.67
G16: S 2.48, C 1.88, Y 1.58, H 1.48, N 1.95, W 2.29, T 2.04, M 1.99, R 1.78, I 2.14, F 2.27, D 2.29, V 2.07, K 1.81, P 2.03, E 2.04, A 2.24, L 1.9, Q 2.71
L15: K 4.02, D 4.63, R 3.1, N 4.48, I 1.97, C 2.92, Y 2.93, G 4.38, H 3.91, E 4.45, Q 4, A 3.36, T 3.28, M 3.07, F 2.94, V 2.04, P 4.55, S 3.47, W 2.65
N20: A 2.03, Q 2.14, T 1.78, E 2.74, H 2.67, F 1.66, L 1.23, P 2.32, D 2.71, Y 3.07, C 2.05, S 3.05, R 2.25, G 3.22, M 1.93, V 4.33, K 1.94, W 2.03, I 1.59
V21: A 2.9, D 4.86, C 3.01
